Data on four molecules can be found in patent US20140087995A1 (published 2014).

In assay [1] the target is T1, human calcitonin receptor (human, UniProt P30988 25-474).
T1 construct: whole, on cells; Used as membranes prepared from a BHK tk'ts 13 cell line stably transfected with the human calcitonin receptor (Assay VII); also called hCTR; hCT
T1 sequence (looked up): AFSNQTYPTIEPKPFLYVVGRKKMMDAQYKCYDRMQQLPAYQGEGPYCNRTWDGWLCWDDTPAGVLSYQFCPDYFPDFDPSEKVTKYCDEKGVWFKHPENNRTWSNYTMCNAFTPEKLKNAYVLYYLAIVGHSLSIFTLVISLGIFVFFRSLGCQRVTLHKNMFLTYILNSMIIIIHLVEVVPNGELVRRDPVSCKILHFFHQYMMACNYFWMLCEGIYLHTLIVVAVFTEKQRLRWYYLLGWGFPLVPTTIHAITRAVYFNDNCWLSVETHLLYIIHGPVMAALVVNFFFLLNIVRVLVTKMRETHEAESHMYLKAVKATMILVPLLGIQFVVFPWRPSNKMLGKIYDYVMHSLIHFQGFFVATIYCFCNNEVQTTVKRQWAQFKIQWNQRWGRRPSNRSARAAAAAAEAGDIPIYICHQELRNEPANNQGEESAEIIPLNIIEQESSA
The assay can be described thus: IC50 on human CTR divided by IC50 on human amylin receptor (Assays VII/V). The gist of the method:
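IC₅₀ values were derived by one-site competition analysis of SPA counts. Cell membranes (35 ng/μL) with SPA beads were incubated with test compounds for 120 min at 25° C in Hepes buffer, pH 7.4, containing CaCl2, MgCl₂, OA and Tween20.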

Assay [2] deals with T2, rat calcitonin receptor (rat, UniProt P32214 25-516).
T2 construct: whole, on cells; Used as membranes prepared from BHK tk'ts 13 cells transiently transfected with the rat calcitonin receptor (Assay VIII); also called rCTR; rat calcitonin (a) receptor
T2 sequence (looked up): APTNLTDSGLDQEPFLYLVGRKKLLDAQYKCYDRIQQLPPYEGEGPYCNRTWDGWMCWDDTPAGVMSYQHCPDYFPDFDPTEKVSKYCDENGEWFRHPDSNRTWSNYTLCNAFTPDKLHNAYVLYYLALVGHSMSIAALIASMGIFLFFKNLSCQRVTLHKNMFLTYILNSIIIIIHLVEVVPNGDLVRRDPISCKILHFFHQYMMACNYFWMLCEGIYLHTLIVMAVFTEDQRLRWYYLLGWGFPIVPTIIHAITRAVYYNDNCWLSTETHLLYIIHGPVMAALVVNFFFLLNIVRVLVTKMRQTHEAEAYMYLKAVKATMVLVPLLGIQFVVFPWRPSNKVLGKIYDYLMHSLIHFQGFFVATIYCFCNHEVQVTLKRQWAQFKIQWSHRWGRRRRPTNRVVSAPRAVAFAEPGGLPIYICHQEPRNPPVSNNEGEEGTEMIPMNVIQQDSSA
The assay can be described thus: IC50 on rat CTR divided by IC50 on rat amylin receptor (Assays VIII/VI).

For assay [3], the target named is T2, rat calcitonin receptor. The assay is described as follows: SPA competition with 125I-calcitonin, membranes of BHK cells with rat CTR (Assay VIII).
Assay [4] addresses T3, rat amylin receptor (rat calcitonin receptor + rat RAMP 3) (rat, UniProt P32214 25-516; Q9JJ73 23-147).
T3 construct: whole, on cells; Used as membranes prepared from BHK tk'ts 13 cells transiently transfected with rat calcitonin receptor and rat RAMP 3 (Assay VI); also called rAmylin-R; rat amylin 3(a) receptor
T3 sequence (looked up) 1: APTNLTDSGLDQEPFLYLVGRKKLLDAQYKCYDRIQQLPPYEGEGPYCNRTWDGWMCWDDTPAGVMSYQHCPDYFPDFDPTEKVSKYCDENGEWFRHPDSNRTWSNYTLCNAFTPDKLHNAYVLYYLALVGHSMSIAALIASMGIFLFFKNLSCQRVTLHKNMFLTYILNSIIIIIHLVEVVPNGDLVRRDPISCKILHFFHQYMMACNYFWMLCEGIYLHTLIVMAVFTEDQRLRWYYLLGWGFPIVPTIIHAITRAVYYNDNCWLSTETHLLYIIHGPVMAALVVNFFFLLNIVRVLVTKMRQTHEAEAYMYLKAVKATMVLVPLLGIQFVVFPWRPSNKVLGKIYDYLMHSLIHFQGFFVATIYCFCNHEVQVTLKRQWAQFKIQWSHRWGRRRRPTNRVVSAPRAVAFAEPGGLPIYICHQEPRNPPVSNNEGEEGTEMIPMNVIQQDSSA
T3 sequence (looked up) 2: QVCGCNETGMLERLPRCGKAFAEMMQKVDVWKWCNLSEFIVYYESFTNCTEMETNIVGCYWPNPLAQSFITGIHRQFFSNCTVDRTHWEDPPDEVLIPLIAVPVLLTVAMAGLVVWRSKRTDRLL
The assay can be described thus: SPA competition with 125I-rat amylin, membranes of BHK cells with rat CTR + rat RAMP3 (Assay VI).

Numbered stars: 1 amine (or outer) side, 2 acyl side, 3 side chain; on linkers, the order of the positions; unused ones are H or OH. Bridge positions count the residues as written; N and C are the ends. Side chains are listed from the residue outwards. Ends that are not written are not given here. * marks the point of attachment. C20 diacid = O=C(O)CCCCCCCCCCCCCCCCCCC(=O)*; γGlu = O=C(O)[C@H](CCC(=O)[*:2])N[*:1]; AEEA = NCCOCCOCC(=O)O

B1: N^ε1-[2-[2-[2-[[(4S)-4-carboxy-4-(19-carboxynonadecanoylamino)butanoyl]amino]ethoxy]ethoxy]acetyl]-[Arg17,Pro21,Pro27,Pro29,Pro31]-h-amylin (peptide)
peptide: K([AEEA-γGlu-C20 diacid])CNTATCATQRLANFLRHSSPNFGAIPSPTPVGSNTY-NH2
modifications: disulfide 2-7; N-terminus assumed
SMILES: CC[C@H](C)[C@H](NC(=O)[C@H](C)NC(=O)CNC(=O)[C@H](Cc1ccccc1)NC(=O)[C@H](CC(N)=O)NC(=O)[C@@H]1CCCN1C(=O)[C@H](CO)NC(=O)[C@H](CO)NC(=O)[C@H](Cc1c[nH]cn1)NC(=O)[C@H](CCCNC(=N)N)NC(=O)[C@H](CC(C)C)NC(=O)[C@H](Cc1ccccc1)NC(=O)[C@H](CC(N)=O)NC(=O)[C@H](C)NC(=O)[C@H](CC(C)C)NC(=O)[C@H](CCCNC(=N)N)NC(=O)[C@H](CCC(N)=O)NC(=O)[C@@H](NC(=O)[C@H](C)NC(=O)[C@@H]1CSSC[C@H](NC(=O)[C@@H](N)CCCCNC(=O)COCCOCCNC(=O)CC[C@H](NC(=O)CCCCCCCCCCCCCCCCCCC(=O)O)C(=O)O)C(=O)N[C@@H](CC(N)=O)C(=O)N[C@@H]([C@@H](C)O)C(=O)N[C@@H](C)C(=O)N[C@@H]([C@@H](C)O)C(=O)N1)[C@@H](C)O)C(=O)N1CCC[C@H]1C(=O)N[C@@H](CO)C(=O)N1CCC[C@H]1C(=O)N[C@H](C(=O)N1CCC[C@H]1C(=O)N[C@H](C(=O)NCC(=O)N[C@@H](CO)C(=O)N[C@@H](CC(N)=O)C(=O)N[C@H](C(=O)N[C@@H](Cc1ccc(O)cc1)C(N)=O)[C@@H](C)O)C(C)C)[C@@H](C)O
notes: Analogue of human amylin; also called compound 54
In the case of B1, the “Ratio hCT/hAmylin binding” value in assay [1] was determined as 146. Also, the “Ratio rCT/rAmylin binding” value with rat calcitonin receptor [2] stood at 179. The results for the IC50 (with rat calcitonin receptor [3]; in assay [4]) were 8.79 nM and 0.049 nM, respectively.

B2: N^ε1-[2-[2-[2-[[(4S)-4-carboxy-4-(19-carboxynonadecanoylamino)butanoyl]amino]ethoxy]ethoxy]acetyl]-[Arg17,Pro21,Pro27,Pro29,Pro34]-h-amylin (peptide)
peptide: K([AEEA-γGlu-C20 diacid])CNTATCATQRLANFLRHSSPNFGAIPSPTNVGPNTY-NH2
modifications: disulfide 2-7; N-terminus assumed
SMILES: CC[C@H](C)[C@H](NC(=O)[C@H](C)NC(=O)CNC(=O)[C@H](Cc1ccccc1)NC(=O)[C@H](CC(N)=O)NC(=O)[C@@H]1CCCN1C(=O)[C@H](CO)NC(=O)[C@H](CO)NC(=O)[C@H](Cc1c[nH]cn1)NC(=O)[C@H](CCCNC(=N)N)NC(=O)[C@H](CC(C)C)NC(=O)[C@H](Cc1ccccc1)NC(=O)[C@H](CC(N)=O)NC(=O)[C@H](C)NC(=O)[C@H](CC(C)C)NC(=O)[C@H](CCCNC(=N)N)NC(=O)[C@H](CCC(N)=O)NC(=O)[C@@H](NC(=O)[C@H](C)NC(=O)[C@@H]1CSSC[C@H](NC(=O)[C@@H](N)CCCCNC(=O)COCCOCCNC(=O)CC[C@H](NC(=O)CCCCCCCCCCCCCCCCCCC(=O)O)C(=O)O)C(=O)N[C@@H](CC(N)=O)C(=O)N[C@@H]([C@@H](C)O)C(=O)N[C@@H](C)C(=O)N[C@@H]([C@@H](C)O)C(=O)N1)[C@@H](C)O)C(=O)N1CCC[C@H]1C(=O)N[C@@H](CO)C(=O)N1CCC[C@H]1C(=O)N[C@H](C(=O)N[C@@H](CC(N)=O)C(=O)N[C@H](C(=O)NCC(=O)N1CCC[C@H]1C(=O)N[C@@H](CC(N)=O)C(=O)N[C@H](C(=O)N[C@@H](Cc1ccc(O)cc1)C(N)=O)[C@@H](C)O)C(C)C)[C@@H](C)O
notes: Analogue of human amylin; also called compound 56
With B2, the “Ratio hCT/hAmylin binding” value in assay [1] is 42.6. Also, the “Ratio rCT/rAmylin binding” value in the assay with rat calcitonin receptor [2] is 131. Further, the values for the concentration for half-maximal inhibition (IC50) (in the assay with rat calcitonin receptor [3]; in assay [4]) were 5.26 nM and 0.04 nM, respectively.

B3: N^ε1-[2-[2-[2-[[(4S)-4-carboxy-4-(19-carboxynonadecanoylamino)butanoyl]amino]ethoxy]ethoxy]acetyl]-[Arg17,Pro21,Pro27,Pro31,His35]-h-amylin (peptide)
peptide: K([AEEA-γGlu-C20 diacid])CNTATCATQRLANFLRHSSPNFGAIPSSTPVGSHTY-NH2
modifications: disulfide 2-7; N-terminus assumed
SMILES: CC[C@H](C)[C@H](NC(=O)[C@H](C)NC(=O)CNC(=O)[C@H](Cc1ccccc1)NC(=O)[C@H](CC(N)=O)NC(=O)[C@@H]1CCCN1C(=O)[C@H](CO)NC(=O)[C@H](CO)NC(=O)[C@H](Cc1c[nH]cn1)NC(=O)[C@H](CCCNC(=N)N)NC(=O)[C@H](CC(C)C)NC(=O)[C@H](Cc1ccccc1)NC(=O)[C@H](CC(N)=O)NC(=O)[C@H](C)NC(=O)[C@H](CC(C)C)NC(=O)[C@H](CCCNC(=N)N)NC(=O)[C@H](CCC(N)=O)NC(=O)[C@@H](NC(=O)[C@H](C)NC(=O)[C@@H]1CSSC[C@H](NC(=O)[C@@H](N)CCCCNC(=O)COCCOCCNC(=O)CC[C@H](NC(=O)CCCCCCCCCCCCCCCCCCC(=O)O)C(=O)O)C(=O)N[C@@H](CC(N)=O)C(=O)N[C@@H]([C@@H](C)O)C(=O)N[C@@H](C)C(=O)N[C@@H]([C@@H](C)O)C(=O)N1)[C@@H](C)O)C(=O)N1CCC[C@H]1C(=O)N[C@@H](CO)C(=O)N[C@@H](CO)C(=O)N[C@H](C(=O)N1CCC[C@H]1C(=O)N[C@H](C(=O)NCC(=O)N[C@@H](CO)C(=O)N[C@@H](Cc1c[nH]cn1)C(=O)N[C@H](C(=O)N[C@@H](Cc1ccc(O)cc1)C(N)=O)[C@@H](C)O)C(C)C)[C@@H](C)O
notes: Analogue of human amylin; also called compound 57
For B3, in assay [1], the “Ratio hCT/hAmylin binding” value came to 133. Also, the “Ratio rCT/rAmylin binding” value in the assay with rat calcitonin receptor [2] stood at 135. Further, the results for the half-inhibitory concentration (IC50) (with rat calcitonin receptor [3]; in assay [4]) were 24.4 nM and 0.181 nM, respectively.

B4: N^ε1-[2-[2-[2-[[(4S)-4-carboxy-4-(19-carboxynonadecanoylamino)butanoyl]amino]ethoxy]ethoxy]acetyl]-[Arg17,Pro21,Pro27,Pro31]-h-amylin (peptide)
peptide: K([AEEA-γGlu-C20 diacid])CNTATCATQRLANFLRHSSPNFGAIPSSTPVGSNTY-NH2
modifications: disulfide 2-7; N-terminus assumed
SMILES: CC[C@H](C)[C@H](NC(=O)[C@H](C)NC(=O)CNC(=O)[C@H](Cc1ccccc1)NC(=O)[C@H](CC(N)=O)NC(=O)[C@@H]1CCCN1C(=O)[C@H](CO)NC(=O)[C@H](CO)NC(=O)[C@H](Cc1c[nH]cn1)NC(=O)[C@H](CCCNC(=N)N)NC(=O)[C@H](CC(C)C)NC(=O)[C@H](Cc1ccccc1)NC(=O)[C@H](CC(N)=O)NC(=O)[C@H](C)NC(=O)[C@H](CC(C)C)NC(=O)[C@H](CCCNC(=N)N)NC(=O)[C@H](CCC(N)=O)NC(=O)[C@@H](NC(=O)[C@H](C)NC(=O)[C@@H]1CSSC[C@H](NC(=O)[C@@H](N)CCCCNC(=O)COCCOCCNC(=O)CC[C@H](NC(=O)CCCCCCCCCCCCCCCCCCC(=O)O)C(=O)O)C(=O)N[C@@H](CC(N)=O)C(=O)N[C@@H]([C@@H](C)O)C(=O)N[C@@H](C)C(=O)N[C@@H]([C@@H](C)O)C(=O)N1)[C@@H](C)O)C(=O)N1CCC[C@H]1C(=O)N[C@@H](CO)C(=O)N[C@@H](CO)C(=O)N[C@H](C(=O)N1CCC[C@H]1C(=O)N[C@H](C(=O)NCC(=O)N[C@@H](CO)C(=O)N[C@@H](CC(N)=O)C(=O)N[C@H](C(=O)N[C@@H](Cc1ccc(O)cc1)C(N)=O)[C@@H](C)O)C(C)C)[C@@H](C)O
notes: Analogue of human amylin; also called compound 49
For B4, the “Ratio hCT/hAmylin binding” value in assay [1] was 10.8. For the same molecule, the “Ratio rCT/rAmylin binding” value with rat calcitonin receptor [2] was 47.7. For the same molecule, the figures for the IC50 (with rat calcitonin receptor [3]; in assay [4]) were 51.4 nM and 1.08 nM, respectively.
